The results in this text go back to patent US20200023070A1, “CONJUGATES COMPRISING AN GLP-1/GLUCAGON/GIP TRIPLE RECEPTOR AGONIST, A LINKER AND HYALURONIC ACID” (SANOFI, priority 2018, published 2020).

Starred links: 1 amine or outer side, 2 acyl side, 3 side chain; linkers in the order of their positions; H or OH if unused. Non-standard residues stand in square brackets, D forms with d. Groups on a side chain read outwards from the residue. No end group written: not given here. *: point of attachment. γGlu = O=C(O)[C@H](CCC(=O)[*:2])N[*:1]; Palmitoyl = CCCCCCCCCCCCCCCC(=O)*; Aib = CC(C)(N)C(=O)O

Data set [1] can be described thus: Injectability study (load on pre-filled syringe). The class given is physicochemical. The settings on record: 20 mg/mL suspension, 13.5% peptide load, 1 mL BD Neopak PFS, needle 27G×½″ TW, 3.2 mm/s. On the procedure: A suspension of HA-peptide conjugate with Seq. ID No. 7 (20 mg/mL in 20 mM acetate buffer, 7.6 mg/mL NaCl, 4 mg/mL soluble (non crosslinked) hyaluronic acid 700 kD, pH 4.8) was manually filled into 1 mL long BD Neopak glass pre-filled syringes (PFS), 600 μL each, and afterwards closed via vacuum stoppering. The filled PFS were loaded into the syringe holder of the equipment and the injection speed was adjusted to […] which equals 3.2 mm/s for the BD Neopak PFS.

A short description of data set [2]: Pharmacokinetics in female SD rats. The class given is in vivo, Sprague-Dawley rats. The protocol:
5 female Sprague-Dawley rats were used in this study. Animals had access to food and water ad libitum throughout the entire study period. The animals were dosed with 1.01 mg/kg (peptide content) of a suspension of the conjugate of Seq ID. No.7. Plasma samples were taken at 4, 24, 48, 72, 144, 192, 240 and 336 h. Samples were analysed for the peptide. All quantitative results were determined by LC-MS/MS. For calculation of mean concentrations, values below the lower limit of quantification (LLOQ=2.5 ng/mL in plasma) were set to zero. The pharmacokinetic parameters were calculated by the program WinNonlin 6.4 using a non-compartmental model and linear trapezoidal interpolation calculation.

Data set [3] concerns female diet-induced obese (DIO) C57BL/6N mice. In words: Body mass after subcutaneous treatment in female diet-induced obese mice. The class given is in vivo, mouse. The settings on record: for mean body weight reduction by day 23 versus the body weight at day 0: days 1, 8, 15, 22, female DIO mice. On the procedure: Female C57BL/6N Cr1 mice were used for this study.
Mice were group housed under vivarium conditions that included a 12 h light/dark cycle, room temperatures—of 23±1° C. and a relative humidity between 30-70%. All animals had free access to water and diet (Ssniff adjusted high fat diet: TD.97366) for 18 weeks prior to pharmacological intervention (dosing phase). After pre-feeding period, mice were stratified for body weight to treatment groups with n=8, so that each group has similar mean body weight. At the study start mice were between 25-26 weeks old.
Mice were treated in the morning on days 1, 8, 15 and 22 between 8:00 and 9:00 AM with a s.c. injection of cross-linked hyaluronic acid (“vehicle”) or 100 and 200 nmol/kg/week conjugate (based on peptide content) of SEQ ID NO: 7 using a 30 G needle.
Body weight and food consumption were measured daily throughout the dosing phase. The study was terminated on day 23.
For statistical analyses a One-Way Analysis of Variance (ANOVA) was performed with SigmaStat 3.5. The power of the performed test was alpha=0.050:0.999 and a comparison versus the high fat diet-Vehicle group was performed with Dunnett's Method.

Data set [4] is described as follows: Pharmacokinetics in female Göttingen minipigs. The class given is in vivo. The settings on record: for half-life in plasma: after subcutaneous administration. The protocol: 6 female Göttingen minipigs of average 30000 g weight were used in this study.
Animals had access to food and water ad libitum throughout the entire study period. The animals were dosed with 0.23 mg/kg of a 17.6% suspension of HA-Aib-linker-Seq ID. No.7. Plasma samples were taken at 0, 1, 4, 8, 24, 48, 72, 96, 144, 192, 264, 312, 360, 432, 480 and 528 h. Samples were analysed for the peptide. All quantitative results were determined by LC-MS/MS. For calculation of mean concentrations, values below the lower limit of quantification (LLOQ=0.5 ng/mL in plasma) were set to zero. The pharmacokinetic parameters were calculated by the program WinNonlin 6.4 using a non-compartmental model and linear trapezoidal interpolation calculation.

For another data set, the target named is T1, human GIP receptor (human, UniProt P48546 22-466).
T1 sequence (looked up): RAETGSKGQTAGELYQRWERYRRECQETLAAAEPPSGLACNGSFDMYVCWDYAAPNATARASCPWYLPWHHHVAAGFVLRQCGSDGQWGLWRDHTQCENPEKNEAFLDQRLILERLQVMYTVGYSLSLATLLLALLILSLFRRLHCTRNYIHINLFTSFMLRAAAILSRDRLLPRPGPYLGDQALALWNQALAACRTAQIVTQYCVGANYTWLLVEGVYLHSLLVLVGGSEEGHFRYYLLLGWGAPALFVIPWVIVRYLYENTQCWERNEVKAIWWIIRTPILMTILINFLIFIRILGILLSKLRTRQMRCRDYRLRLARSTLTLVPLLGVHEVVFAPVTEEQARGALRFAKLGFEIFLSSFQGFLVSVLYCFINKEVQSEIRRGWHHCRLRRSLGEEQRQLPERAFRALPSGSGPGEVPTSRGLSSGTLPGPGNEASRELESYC
In words: cell-based or functional assay.

A further data set has as its target human glucagon receptor (human, UniProt P47871 26-477). In words: cell-based or functional assay.
The next data set addresses human GLP-1 receptor (human, UniProt P43220 24-463). In words: cell-based or functional assay.
Where [5] appears, read: peptide Seq. No. 7 in plasma, single s.c. 1.01 mg/kg (peptide content) conjugate suspension.
Setting [6] is: peptide Seq. NO: 7 in plasma, single s.c. 0.23 mg/kg of 17.6% conjugate (0.04 mg/kg peptide).

Chain of human glucagon receptor (P47871 26-477): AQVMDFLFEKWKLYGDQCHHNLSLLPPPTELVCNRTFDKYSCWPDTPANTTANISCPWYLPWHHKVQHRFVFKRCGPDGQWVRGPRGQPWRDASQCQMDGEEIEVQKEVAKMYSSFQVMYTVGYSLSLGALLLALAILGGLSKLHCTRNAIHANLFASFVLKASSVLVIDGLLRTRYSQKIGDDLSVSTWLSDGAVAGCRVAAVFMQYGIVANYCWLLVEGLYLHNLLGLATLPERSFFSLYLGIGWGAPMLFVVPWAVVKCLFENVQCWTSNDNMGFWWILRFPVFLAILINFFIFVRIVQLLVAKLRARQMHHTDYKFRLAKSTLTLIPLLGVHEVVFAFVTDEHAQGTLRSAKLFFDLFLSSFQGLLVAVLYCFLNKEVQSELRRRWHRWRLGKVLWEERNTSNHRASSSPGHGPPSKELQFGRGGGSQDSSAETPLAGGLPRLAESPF

Turning to “conjugate of SEQ ID NO: 7: Divinylsulfone-crosslinked hyaluronic acid hydrogel carrying peptide Seq. ID No. 7 via Aib-linker (thiol-maleimide conjugation) (H[Aib]HGTFTSDLSKLK([γGlu-γGlu-Palmitoyl])EEQRQ[Aib]EFIEWLKA[dA]GPPS[Aib]KPPPK-NH2; also: conjugated to divinylsulfone-crosslinked hyaluronic acid hydrogel via Aib-linker (thiol-maleimide), site not given here)”, in data set [1], the average load stood at 6.5 N and the maximum load worked out at 7.6 N. Besides, the half-life in plasma entry in data set [2] (after subcutaneous administration, 1.01 mg/kg (peptide content)) is recorded as “around 3 days”. In data set [2] (setting [5]), this molecule yielded an AUClast of 1810 ng·h/mL, a Cmax of 14.0 ng/mL, a tlast of 221 h and a tmax of 48.0 h. In data set [3] (100 nmol/kg/w s.c. (based on peptide content)), the “mean body weight reduction by day 23 versus the body weight at day 0” value is given as roughly 17.7±1.3%. Further, the “mean body weight reduction by day 23 versus the body weight at day 0” value in data set [3] (200 nmol/kg/w s.c. (based on peptide content)) is reported as roughly 19.5±1.4%. Also, the “body weight effect of the first administration” value in data set [3] (both doses (100 and 200 nmol/kg/week s.c.), p<0.05 vs high-fat diet vehicle) is “significant body weight-reducing effect that lasted until day 8”. The half-life in plasma entry in data set [4] is reported as “around 139 h”. This molecule registered a half-life in plasma in data set [4] (same value as in h) of 5.8 days. In addition, in data set [4] (setting [6]), the AUClast was found to be 897 ng·h/mL, the Cmax is 4.96 ng/mL, the tlast is on record as 344 h and the tmax is reported as 100 h.

B1: Peptide of SEQ ID NO: 6 (GLP-1/Glucagon/GIP triple receptor agonist, exendin-4 derivative) (peptide)
peptide: H[Aib]HGTFTSDLSKLK([γGlu-γGlu-Palmitoyl])EEQRQKEFIEWLKAGGHPS[Aib]KPPPK-NH2
modifications: N-terminus assumed
SMILES: CCCCCCCCCCCCCCCC(=O)N[C@@H](CCC(=O)N[C@@H](CCC(=O)NCCCC[C@H](NC(=O)[C@H](CC(C)C)NC(=O)[C@H](CCCCN)NC(=O)[C@H](CO)NC(=O)[C@H](CC(C)C)NC(=O)[C@H](CC(=O)O)NC(=O)[C@H](CO)NC(=O)[C@@H](NC(=O)[C@H](Cc1ccccc1)NC(=O)[C@@H](NC(=O)CNC(=O)[C@H](Cc1c[nH]cn1)NC(=O)C(C)(C)NC(=O)[C@@H](N)Cc1c[nH]cn1)[C@@H](C)O)[C@@H](C)O)C(=O)N[C@@H](CCC(=O)O)C(=O)N[C@@H](CCC(=O)O)C(=O)N[C@@H](CCC(N)=O)C(=O)N[C@@H](CCCNC(=N)N)C(=O)N[C@@H](CCC(N)=O)C(=O)N[C@@H](CCCCN)C(=O)N[C@@H](CCC(=O)O)C(=O)N[C@@H](Cc1ccccc1)C(=O)N[C@H](C(=O)N[C@@H](CCC(=O)O)C(=O)N[C@@H](Cc1c[nH]c2ccccc12)C(=O)N[C@@H](CC(C)C)C(=O)N[C@@H](CCCCN)C(=O)N[C@@H](C)C(=O)NCC(=O)NCC(=O)N[C@@H](Cc1c[nH]cn1)C(=O)N1CCC[C@H]1C(=O)N[C@@H](CO)C(=O)NC(C)(C)C(=O)N[C@@H](CCCCN)C(=O)N1CCC[C@H]1C(=O)N1CCC[C@H]1C(=O)N1CCC[C@H]1C(=O)N[C@@H](CCCCN)C(N)=O)[C@@H](C)CC)C(=O)O)C(=O)O
With B1, the “EC50 hGlP R (cAMP response, HTRF, HEK-293 cells)” value with human GIP receptor was 2.1 pM. Besides, the “EC50 hGlucagon R (cAMP response, HTRF, HEK-293 cells)” value with human glucagon receptor was found to be 2.3 pM. Moreover, the “EC50 hGLP-1R (cAMP response, HTRF, HEK-293 cells)” value in the data set with human GLP-1 receptor is 1.4 pM.

B2: Peptide of SEQ ID NO: 7 (GLP-1/Glucagon/GIP triple receptor agonist, exendin-4 derivative) (peptide)
peptide: H[Aib]HGTFTSDLSKLK([γGlu-γGlu-Palmitoyl])EEQRQ[Aib]EFIEWLKA[dA]GPPS[Aib]KPPPK-NH2
modifications: N-terminus assumed
SMILES: CCCCCCCCCCCCCCCC(=O)N[C@@H](CCC(=O)N[C@@H](CCC(=O)NCCCC[C@H](NC(=O)[C@H](CC(C)C)NC(=O)[C@H](CCCCN)NC(=O)[C@H](CO)NC(=O)[C@H](CC(C)C)NC(=O)[C@H](CC(=O)O)NC(=O)[C@H](CO)NC(=O)[C@@H](NC(=O)[C@H](Cc1ccccc1)NC(=O)[C@@H](NC(=O)CNC(=O)[C@H](Cc1c[nH]cn1)NC(=O)C(C)(C)NC(=O)[C@@H](N)Cc1c[nH]cn1)[C@@H](C)O)[C@@H](C)O)C(=O)N[C@@H](CCC(=O)O)C(=O)N[C@@H](CCC(=O)O)C(=O)N[C@@H](CCC(N)=O)C(=O)N[C@@H](CCCNC(=N)N)C(=O)N[C@@H](CCC(N)=O)C(=O)NC(C)(C)C(=O)N[C@@H](CCC(=O)O)C(=O)N[C@@H](Cc1ccccc1)C(=O)N[C@H](C(=O)N[C@@H](CCC(=O)O)C(=O)N[C@@H](Cc1c[nH]c2ccccc12)C(=O)N[C@@H](CC(C)C)C(=O)N[C@@H](CCCCN)C(=O)N[C@@H](C)C(=O)N[C@H](C)C(=O)NCC(=O)N1CCC[C@H]1C(=O)N1CCC[C@H]1C(=O)N[C@@H](CO)C(=O)NC(C)(C)C(=O)N[C@@H](CCCCN)C(=O)N1CCC[C@H]1C(=O)N1CCC[C@H]1C(=O)N1CCC[C@H]1C(=O)N[C@@H](CCCCN)C(N)=O)[C@@H](C)CC)C(=O)O)C(=O)O
For B2, the “EC50 hGlP R (cAMP response, HTRF, HEK-293 cells)” value in the data set with human GIP receptor was 1.5 pM. The “EC50 hGlucagon R (cAMP response, HTRF, HEK-293 cells)” value in the data set with human glucagon receptor came to 2.1 pM. Also, the “EC50 hGLP-1R (cAMP response, HTRF, HEK-293 cells)” value with human GLP-1 receptor turned out to be 2.9 pM.
